Among the data in article PMC4073494 (Nature communications, 2014) are EC50 values, retold here.

The assay has as its target purified full-length EED (AlphaScreen) (UniProt O75530 1-441). Kind of assay: AlphaScreen or HTRF.

Sequence of purified full-length EED (AlphaScreen) (O75530 whole entry): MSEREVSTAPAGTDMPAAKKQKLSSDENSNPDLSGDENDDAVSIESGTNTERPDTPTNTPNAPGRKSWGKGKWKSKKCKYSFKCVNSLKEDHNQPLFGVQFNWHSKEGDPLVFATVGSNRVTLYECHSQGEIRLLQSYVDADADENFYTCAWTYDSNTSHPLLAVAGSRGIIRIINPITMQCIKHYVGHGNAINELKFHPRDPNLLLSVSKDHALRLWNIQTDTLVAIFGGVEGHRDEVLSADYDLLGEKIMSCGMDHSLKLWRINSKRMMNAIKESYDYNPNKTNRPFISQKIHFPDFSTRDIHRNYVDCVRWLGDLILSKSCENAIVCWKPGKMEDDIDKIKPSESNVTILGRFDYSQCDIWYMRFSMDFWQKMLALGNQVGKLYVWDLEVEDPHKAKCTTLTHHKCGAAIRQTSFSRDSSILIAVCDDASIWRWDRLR

B1: unlabeled full-length EZH2 (AlphaScreen) (natural protein)
chain: not shown
The EC50 is the concentration needed to bring the measured effect to its halfway point. Regarding B1, the EC50 was found to be 148 nM.
